Data published in paper PMC5170556 (Molecular Biology of the Cell, 2016).

B4: Kar9C (residues 429–644) (domain or fragment, S. cerevisiae, UniProt P32526 429-644, looked up)
chain: SVIGTITQDFQERVAINEGDSNKTPENSTTVALKGKKLGKALLQKMNIKPATSPNSSNAINPFFDPESPNKGKLILSSVPPLPYDETDETTLRVSRGENEKSPDSFITSRHENKVQITETPLMAKNKSVLDIEKDKWNHYRSLPSRIPIYKDKVVKVTVENTPIAKVFQTPPTKITTPNSQVWVPSTRRRTRLRPPTPLSQLLSPREGRLDKTPTY
B5: C-terminal domain of Bim1 (residues 194–344) (domain or fragment, S. cerevisiae, UniProt P40013 194-344, looked up)
chain: ETIGSLNEEIEQYKGTVSTLEIEREFYFNKLRDIEILVHTTQDLINEGVYKFNDETITGHGNGNGGALLRFVKKVESILYATAEGFEMNDGEDELNDKNLGEHGTVPNQGGYANSNGEVNGNEGSNHDVIMQNDEGEVGVSNNLIIDEETF
B6: Kar9C-Site2mut (domain or fragment, S. cerevisiae, UniProt P32526 429-644, looked up)
chain: SVIGTITQDFQERVAINEGDSNKTPENSTTVALKGKKLGKALLQKMNIKPATSPNSSNAINPFFDPESPNKGKLILSSVPPLPYDETDETTLRVSRGENEKSPDSFITSRHENKVQITETPLMAKNKSVLDIEKDKWNHYRSLPSRNNIYKDKVVKVTVENTPIAKVFQTPPTKITTPNSQVWVPSTRRRTRLRPPTPLSQLLSPREGRLDKTPTY

Assays:
[1] = target: Kar9 (full-length) (S. cerevisiae) (UniProt P32526); experiment: SEC-MALS
[2] = target: Kar9N (residues 1–429) (S. cerevisiae) (UniProt P32526); experiment: SEC-MALS
[3] = target: B5; experiment: ITC
Kar9-GFP = target: T1, Kar9-GFP (S. cerevisiae, UniProt P32526 1-644); experiment: in vitro microtubule-tip tracking reconstitution
T1 sequence (looked up): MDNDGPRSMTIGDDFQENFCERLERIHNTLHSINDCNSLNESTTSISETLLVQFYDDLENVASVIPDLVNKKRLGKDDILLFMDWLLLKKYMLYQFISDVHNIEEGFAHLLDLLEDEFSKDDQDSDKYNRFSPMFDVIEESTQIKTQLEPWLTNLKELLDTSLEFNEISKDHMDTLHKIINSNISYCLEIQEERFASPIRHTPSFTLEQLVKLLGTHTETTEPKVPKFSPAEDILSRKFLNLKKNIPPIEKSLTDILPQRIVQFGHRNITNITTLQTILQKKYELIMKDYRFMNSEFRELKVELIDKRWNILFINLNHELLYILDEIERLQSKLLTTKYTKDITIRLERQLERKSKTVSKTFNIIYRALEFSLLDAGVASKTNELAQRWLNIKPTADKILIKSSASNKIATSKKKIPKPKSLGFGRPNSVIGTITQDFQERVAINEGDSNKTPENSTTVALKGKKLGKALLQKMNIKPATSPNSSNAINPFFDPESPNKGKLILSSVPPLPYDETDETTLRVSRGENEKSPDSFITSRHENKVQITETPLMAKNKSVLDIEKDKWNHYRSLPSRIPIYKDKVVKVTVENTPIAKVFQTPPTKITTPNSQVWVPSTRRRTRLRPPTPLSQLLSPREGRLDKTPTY

Kar9 (full-length) = target: T2, Kar9 (full-length) (S. cerevisiae, UniProt P32526 1-644); experiment: fluorescence correlation spectroscopy
T2 sequence (looked up): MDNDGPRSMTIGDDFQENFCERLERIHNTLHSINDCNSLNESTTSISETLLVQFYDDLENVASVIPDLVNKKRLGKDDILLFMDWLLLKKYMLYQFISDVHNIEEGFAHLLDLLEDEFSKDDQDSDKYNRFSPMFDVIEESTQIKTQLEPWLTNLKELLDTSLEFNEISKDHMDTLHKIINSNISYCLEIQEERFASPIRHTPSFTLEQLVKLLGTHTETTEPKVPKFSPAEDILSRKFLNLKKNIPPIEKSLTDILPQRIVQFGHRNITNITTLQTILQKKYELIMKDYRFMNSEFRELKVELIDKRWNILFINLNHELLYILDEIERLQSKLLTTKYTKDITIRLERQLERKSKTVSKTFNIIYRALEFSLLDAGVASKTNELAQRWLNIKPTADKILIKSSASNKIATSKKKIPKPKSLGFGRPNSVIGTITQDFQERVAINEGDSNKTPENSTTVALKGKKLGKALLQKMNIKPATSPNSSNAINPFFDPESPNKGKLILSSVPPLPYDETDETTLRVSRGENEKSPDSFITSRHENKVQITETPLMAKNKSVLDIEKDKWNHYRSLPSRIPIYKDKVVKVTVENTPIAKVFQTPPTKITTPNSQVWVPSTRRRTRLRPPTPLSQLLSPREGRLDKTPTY

Kar9C (residues 429–644) = target: B4; experiment: ITC
Kar9C-Site2mut = target: B6; experiment: ITC
SEC-MALS = target: the molecule itself; experiment: SEC-MALS
[4] = target: T3, Kar9N-Site1 (first 570 N-terminal residues of Kar9) (S. cerevisiae, UniProt P32526 1-570); experiment: fluorescence correlation spectroscopy
T3 sequence (looked up): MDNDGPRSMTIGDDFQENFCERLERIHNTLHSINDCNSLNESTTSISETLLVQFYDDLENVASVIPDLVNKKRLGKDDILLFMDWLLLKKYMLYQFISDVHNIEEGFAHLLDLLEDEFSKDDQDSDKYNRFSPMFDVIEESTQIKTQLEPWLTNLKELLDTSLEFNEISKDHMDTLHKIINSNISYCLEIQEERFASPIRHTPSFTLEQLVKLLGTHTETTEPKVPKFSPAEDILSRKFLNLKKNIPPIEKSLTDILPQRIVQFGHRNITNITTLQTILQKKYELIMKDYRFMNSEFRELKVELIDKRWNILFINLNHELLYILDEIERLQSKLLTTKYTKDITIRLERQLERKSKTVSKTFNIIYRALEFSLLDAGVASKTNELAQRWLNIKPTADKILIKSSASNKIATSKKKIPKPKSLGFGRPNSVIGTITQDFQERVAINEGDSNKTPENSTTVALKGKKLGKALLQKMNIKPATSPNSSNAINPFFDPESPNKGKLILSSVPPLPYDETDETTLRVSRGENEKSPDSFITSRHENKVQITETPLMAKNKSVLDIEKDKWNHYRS

AUC = target: the molecule itself; experiment: AUC

Work on “Kar9 (full-length) (from UniProt P32526 1-644) (natural protein)” yielded a stoichiometry N [1] of 2.

In the case of “Kar9N (residues 1–429) (from UniProt P32526 1-429) (domain or fragment)”, the stoichiometry N [2] is reported as 2.

B1: Trx-Kar9-Site3 (domain or fragment)
chain: VFQTPPTKITTPNSQVWVPSTRRRTRLRPPTPLSQLLSPREGRLDKTPTY
With B1 the Kd [3] was 560 nM and the “stoichiometry N” value [3] was 0.99.

B2: Mal3 (unlabeled), Schizosaccharomyces pombe EB1 family member (natural protein, UniProt Q10113 1-308, looked up)
chain: MSESRQELLAWINQVTSLGLTRIEDCGKGYAMIQIFDSIYQDIPLKKVNFECNNEYQYINNWKVLQQVFLKKGIDKVVDPERLSRCKMQDNLEFVQWAKRFWDQYYPGGDYDALARRGNRGPANTRVMNSSAGATGPSRRRQVSSGSSTPSMTKSSANNNNVSSTANTAAVLRAKQAQQQITSLETQLYEVNETMFGLERERDFYFNKLREIEILVQTHLTTSPMSMENMLERIQAILYSTEDGFELPPDQPADLTTALTDHDTNNVAEEAQMTDLKDSETQRVPSAPDFVHARLQSLEVDDDENITF
B2: binds (Kar9-GFP).

B3: GFP-tagged C-terminal domain of Bim1 (domain or fragment, S. cerevisiae, UniProt P40013 194-344, looked up)
chain: ETIGSLNEEIEQYKGTVSTLEIEREFYFNKLRDIEILVHTTQDLINEGVYKFNDETITGHGNGNGGALLRFVKKVESILYATAEGFEMNDGEDELNDKNLGEHGTVPNQGGYANSNGEVNGNEGSNHDVIMQNDEGEVGVSNNLIIDEETF
B3 showed a Kd (Kar9 (full-length)) of 4.5 nM.

With B4 the “stoichiometry N” value [3] was 0.48.

In the case of B5, the Kd (Kar9C (residues 429–644)) is reported as 9.1 nM, the Kd (Kar9C-Site2mut) is reported as 4.7 µM and the “stoichiometry N” value (SEC-MALS) is reported as 2.

In the case of B6, the “stoichiometry N” value [3] is reported as 0.74.

B7: Bim1 (full-length) (natural protein, S. cerevisiae, UniProt P40013 1-344, looked up)
chain: MSAGIGESRTELLTWLNGLLNLNYKKIEECGTGAAYCQIMDSIYGDLPMNRVKFNATAEYEFQTNYKILQSCFSRHGIEKTVYVDKLIRCKFQDNLEFLQWLKKHWIRHKDESVYDPDARRKYRPIITNNSATKPRTVSNPTTAKRSSSTGTGSAMSGGLATRHSSLGINGSRKTSVTQGQLVAIQAELTKSQETIGSLNEEIEQYKGTVSTLEIEREFYFNKLRDIEILVHTTQDLINEGVYKFNDETITGHGNGNGGALLRFVKKVESILYATAEGFEMNDGEDELNDKNLGEHGTVPNQGGYANSNGEVNGNEGSNHDVIMQNDEGEVGVSNNLIIDEETF
B7 was tested, and the “stoichiometry N” value (SEC-MALS) was 2.

B8: C-terminally green fluorescent protein–tagged Bim1 (natural protein, S. cerevisiae, UniProt P40013 1-344, looked up)
chain: MSAGIGESRTELLTWLNGLLNLNYKKIEECGTGAAYCQIMDSIYGDLPMNRVKFNATAEYEFQTNYKILQSCFSRHGIEKTVYVDKLIRCKFQDNLEFLQWLKKHWIRHKDESVYDPDARRKYRPIITNNSATKPRTVSNPTTAKRSSSTGTGSAMSGGLATRHSSLGINGSRKTSVTQGQLVAIQAELTKSQETIGSLNEEIEQYKGTVSTLEIEREFYFNKLRDIEILVHTTQDLINEGVYKFNDETITGHGNGNGGALLRFVKKVESILYATAEGFEMNDGEDELNDKNLGEHGTVPNQGGYANSNGEVNGNEGSNHDVIMQNDEGEVGVSNNLIIDEETF
With B8 the Kd [4] was roughly 100 µM and the “stoichiometry N” value (AUC) was 2.
